B1: PADCEV (antibody, INN chains, looked up, V domains shown)
VH: EVQLVESGGGLVQPGGSLRLSCAASGFTFSSYNMNWVRQAPGKGLEWVSYISSSSSTIYYADSVKGRFTISRDNAKNSLSLQMNSLRDEDTAVYYCARAYYYGMDVWGQGTTVTVSS
VL: DIQMTQSPSSVSASVGDRVTITCRASQGISGWLAWYQQKPGKAPKFLIYAASTLQSGVPSRFSGSGSGTDFTLTISSLQPEDFATYYCQQANSFPPTFGGGTKVEIKR
modifications: vedotin (MMAE) payload
B2: humanized antibody SWY2001-Ab3 (antibody, human IgG1, kappa, V domains shown)
VH: QVQLVQSGAEVKKPGASVKVSCKASGYTFTSYYIHWVRQAPGQRLEWMGWIYPGNVNTKYNENFRDRVTITRDTSASTAYMELSSLRSEDTAVYYCARGIYYFDYWGQGTLVTVSS
VL: AIQMTQSPSSLSASVGDRVTITCKASQSVNNDVAWYQQKPGKAPKLLIYYASNRDTGVPSRFSGSGSGTDFTLTISSLQPEDFATYFCHQDYSSPFTFGGGTKVEIKR
notes: Full-length IgG1, kappa
B3: humanized antibody SWY2001-Ab2 (antibody, human IgG1, kappa, V domains shown)
VH: B2 VH
VL: B2 VL with P80A, F83L, T85V
notes: Full-length IgG1, kappa
B4: humanized antibody SWY2001-Ab1 (antibody, human IgG1, kappa, V domains shown)
VH: B2 VH
VL: B2 VL with A1I, S9K, S10F, K42Q, A43S, S60D
B5: Chimeric antibody (antibody, V domains shown)
VH: QVQLQQSGPVLVKPGASVRISCKASGYTFTSYYIHWVKQRPGQGLEWIGWIYPGNVNTKYNENFRDKATLTADKSSSTSYMQLSSLTSEDSAVYFCARGIYYFDYWGQGTTLTVSS
VL: IIVMTQTPKFLLVSAGDRVTITCKASQSVNNDVAWYQEKPGQSPKLLIYYASNRDTGVPDRFTGSGYGTDFTFTISTVQAEDLAVYFCHQDYSSPFTFGSGTKLEIK
notes: also called chimeric anti-Nectin-4 antibody; murine antibody variable regions on human IgG1

Results on five molecules are retold here after patent US20240366778A1 (CSPC MEGALITH BIOPHARMARCEUTICAL, published 2024).

As a reminder, the EC50 is the concentration at which the effect is half-maximal. As a reminder, the Kd is the concentration at which binding is half-saturated. In general, koff refers to a measure of how fast the partners let go of each other. Read a high koff as fast dissociation. As usually defined, the kon is the rate constant with which the complex forms. Higher therefore signals faster complex formation.

Changes are numbered by the printed parent chain.

One assay deals with Cynomolgus Nectin-4 Protein, His Tag (cynomolgus). The assay can be described thus: ELISA, Nectin-4 protein with antibody dilutions, goat anti-human IgG secondary antibody.
Take B1: the EC50 amounted to 0.000968 µg/mL.

Another assay has as its target T1, Recombinant Rat Nectin-4 His-tag Protein, CF (rat) (UniProt D3ZET1).
T1 sequence: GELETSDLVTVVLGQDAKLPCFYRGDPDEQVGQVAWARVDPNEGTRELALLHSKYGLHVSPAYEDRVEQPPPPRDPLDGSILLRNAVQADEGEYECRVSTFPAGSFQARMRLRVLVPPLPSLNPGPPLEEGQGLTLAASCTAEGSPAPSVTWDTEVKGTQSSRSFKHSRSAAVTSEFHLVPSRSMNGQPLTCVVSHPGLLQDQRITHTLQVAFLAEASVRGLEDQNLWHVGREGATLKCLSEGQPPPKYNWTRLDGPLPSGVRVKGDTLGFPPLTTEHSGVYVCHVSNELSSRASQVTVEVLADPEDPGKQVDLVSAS
Described as above.
Turning to B1, the concentration for a half-maximal effect (EC50) is 0.00101 µg/mL.

In another assay the target is T2, Human Nectin-4 Protein, His Tag (human, UniProt Q96NY8 32-349).
T2 construct: not shown: His tag
T2 sequence (looked up): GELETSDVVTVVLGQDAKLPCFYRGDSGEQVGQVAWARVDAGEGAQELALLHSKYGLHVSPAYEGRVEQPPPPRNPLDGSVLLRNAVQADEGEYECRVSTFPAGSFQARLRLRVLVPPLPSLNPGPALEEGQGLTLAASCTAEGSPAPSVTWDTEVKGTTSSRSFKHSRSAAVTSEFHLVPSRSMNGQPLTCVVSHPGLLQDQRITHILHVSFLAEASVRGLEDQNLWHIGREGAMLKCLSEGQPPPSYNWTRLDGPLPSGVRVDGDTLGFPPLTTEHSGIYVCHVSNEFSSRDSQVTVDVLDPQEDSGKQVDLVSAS
Described as above. As for the experimental part:
(§1) The affinities of Nectin-4 humanized antibodies to Nectin-4 proteins of different species were performed by ELISA. Nectin-4 proteins of different species (human Nectin-4, cynomolgus Nectin-4, rat Nectin-4, mouse Nectin-4) were incubated with Nectin-4 humanized antibody samples of different concentrations, and then incubated with the secondary antibody which binds IgG (Goat anti-Human IgG (H+L) Cross-Adsorbed Secondary Antibody. The signal values of different concentrations were detected by ELISA to analyze the affinities of the samples to Nectin-4 proteins of different species. The experimental results are shown in Table 6, showing that the Nectin-4 humanized antibodies have good affinity for human, rat and cynomolgus Nectin-4 proteins.
The molecule B2 gave an EC50 of 0.00102 µg/mL.

B3 came in with a 50% effective concentration (EC50) of 0.00113 µg/mL.

For B4, the EC50 stood at 0.00121 µg/mL.

Consider B1, for which the EC50 was 0.000877 µg/mL.

Another assay deals with T3, Mouse Nectin-4 Protein, His Tag (mouse, UniProt Q8R007 31-347).
T3 construct: not shown: His tag
T3 sequence (looked up): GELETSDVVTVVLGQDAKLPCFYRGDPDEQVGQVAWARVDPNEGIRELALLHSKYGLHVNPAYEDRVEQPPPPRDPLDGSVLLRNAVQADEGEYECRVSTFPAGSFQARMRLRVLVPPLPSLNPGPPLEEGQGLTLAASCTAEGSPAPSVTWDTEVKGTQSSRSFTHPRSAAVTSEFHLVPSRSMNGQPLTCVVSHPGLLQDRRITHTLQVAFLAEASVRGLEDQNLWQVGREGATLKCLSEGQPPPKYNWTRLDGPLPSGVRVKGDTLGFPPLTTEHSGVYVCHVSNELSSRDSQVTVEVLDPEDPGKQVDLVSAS
The description is as above. As to the method:
as §1
Regarding B2, the EC50 was 2210 µg/mL.

Turning to B3, a half-maximal response (EC50) required 1050 µg/mL.

The molecule B1 yielded an EC50 of 0.0824 µg/mL.

The target in another assay is T4, Recombinant Rat Nectin-4 His-tag Protein, CF (rat, UniProt D3ZET1 31-348).
T4 construct: not shown: His tag
T4 sequence: T1 sequence
The description is as above. As to the method:
as §1
As for B2, the concentration for a half-maximal effect (EC50) worked out at 0.000942 µg/mL.

Consider B3, for which the EC50 turned out to be 0.000726 µg/mL.

On to B4, for which the EC50 turned out to be 0.000857 µg/mL.

The next assay addresses T5, Cynomolgus Nectin-4 Protein, His Tag (cynomolgus, UniProt A0A2K5WES1 32-349).
T5 construct: not shown: His tag
T5 sequence: T2 sequence (looked up) with V39A, I230V
Described as above. As to the method: as §1
In turn, B2 registered an EC50 of 0.000832 µg/mL.

Consider B3, for which the EC50 turned out to be 0.000646 µg/mL.

On to B4, for which the EC50 was determined as 0.000647 µg/mL.

The next assay deals with T2, Human Nectin-4 Protein, His Tag. As to the kind of experiment: BLI (Fortebio), antibody with human Nectin-4 protein. As for the experimental part: In this experiment, Fortebio was used to detect the affinity of Nectin-4 humanized antibodies to human Nectin-4 protein. After the Nectin-4 protein was incubated with the anti-Nectin-4 antibody sample, the signal value was detected by Fortebio to analyze the affinity of the sample to human Nectin-4. […] The chimeric antibodies were engineered on the basis of mouse-derived antibodies, and the constant region is selected from human IgG1.
A general note: In BLI a coated tip is dipped into the sample, and binding shifts an interference pattern.
B5 yielded a Kd of 2.8 nM, a koff of 0.00181 s⁻¹ and a kon of 646000 M⁻¹ s⁻¹.

For the molecule B2, the equilibrium dissociation constant (Kd) worked out at 5.08 nM, the koff turned out to be 0.00425 s⁻¹ and the kon came out at 836000 M⁻¹ s⁻¹.

Molecule B3 displayed a Kd of 5.51 nM, a koff of 0.00414 s⁻¹ and a kon of 752000 M⁻¹ s⁻¹.

For the molecule B4, the Kd was 5.92 nM, the koff is 0.00447 s⁻¹ and the kon stood at 756000 M⁻¹ s⁻¹.
